The values below come from article PMC6404062.

One experiment has as its target Human IgG4 monoclonal antibody (human). Nature of the experiment: ELISA; data not shown: the same plates in DMEM with 5% FCS and 5 g/L ovalbumin, hIgG4-coated wells compared with control wells coated with 200 µL of 100 µg/mL lactoferrin in TBS.
In the case of SHLSKNF [Clone 44 heptapeptide SHLSKNF, displayed on M13 phage], the fold absorbance over lactoferrin-coated control wells is above 3 fold.
Same read-out and setting: with NVQYFAV [Clone 3 heptapeptide NVQYFAV, displayed on M13 phage] the figure was above 3 fold.
The same measure, in the same setting: under QPQMSHM [Clone 34 heptapeptide QPQMSHM, displayed on M13 phage] stands above 3 fold; under CPSTHWK [Clone 1 heptapeptide CPSTHWK, displayed on M13 phage], above 3 fold.
For TNIESLK [Clone 36 heptapeptide TNIESLK, displayed on M13 phage], the fold absorbance over lactoferrin-coated control wells is above 3 fold.
Still for that read-out and setting: under ASHTQKS [Clone 5 heptapeptide ASHTQKS, displayed on M13 phage] stands above 3 fold; under NCHKCWN [Clone 40 heptapeptide NCHKCWN, displayed on M13 phage], above 3 fold.

The target is the same in the next experiment. Nature of the experiment: ELISA; hIgG4 coated on wells as in the screening; 2.5 × 10^11 phage particles in 100 µL per well in DMEM with 5% FCS and 5 g/L ovalbumin, in triplicate; original phage library assayed beside the clones.
SHLSKNF [Clone 44 heptapeptide SHLSKNF, displayed on M13 phage] yielded a fold absorbance over the original phage library above 2.5 fold.
On to NVQYFAV [Clone 3 heptapeptide NVQYFAV, displayed on M13 phage], for which the ELISA signal was above 0.85 AU, the fold ELISA signal over the original phage library was above 4 fold and the fold absorbance over the original phage library is above 2.5 fold.
Regarding QPQMSHM [Clone 34 heptapeptide QPQMSHM, displayed on M13 phage], the fold absorbance over the original phage library was above 2.5 fold.
CPSTHWK [Clone 1 heptapeptide CPSTHWK, displayed on M13 phage]: the fold absorbance over the original phage library was above 2.5 fold.
TNIESLK [Clone 36 heptapeptide TNIESLK, displayed on M13 phage] had a fold absorbance over the original phage library above 2.5 fold.
The molecule ASHTQKS [Clone 5 heptapeptide ASHTQKS, displayed on M13 phage] displayed a fold absorbance over the original phage library above 2.5 fold.
The molecule NCHKCWN [Clone 40 heptapeptide NCHKCWN, displayed on M13 phage] yielded an ELISA signal above 0.85 AU, a fold ELISA signal over the original phage library above 4 fold and a fold absorbance over the original phage library above 2.5 fold.
